Assays:
[1] = system: Tyr^C89S locus; assay: Tyr^C89S knock-in by three-component CRISPR, genotyping/albino phenotype of F0 pups; assay type: in vivo, mouse
Method: (§1) tracrRNA, crRNAs, and ssODNs were synthesized by Integrated DNA Technologies (TABLE 1). All injection mixtures were prepared in a final volume of 50 μL according to the following methodology: Using RNase-free water, reagents, and consumables, crRNA (final concentration 0.61 μM), tracrRNA (final concentration 0.61 μM), and ultrapure Tris-HCl, pH 7.39 (final concentration 10 mM, ThermoFisher) were mixed and incubated at 95° C. for 5 minutes. The mixtures were cooled to room temperature for 10 minutes on the benchtop, and then, EnGen Cas9-NLS S. pyogenes (New England Biolabs) was added to a final concentration of 30 ng/μL. The mixtures were incubated at 37° C. for 15 minutes before adding any remaining components: ssODN (final concentration 3 ng/μL or 30 ng/μL), RAD51 (Creative Biomart, final concentration 10 ng/μL). Injection mixtures were stored on ice and briefly heated to 37° C. prior to injection. For experiments utilizing RS-1, embryos were cultured in KSOM-AA (EMD Millipore MR-121-D) with […] RS-1 (Sigma) dissolved in DMSO or DMSO (Sigma, 1:1000) for 24 hours, washed, and cultured in EmbryoMax FHM HEPES Buffered Medium (Sigma) until collection for genotyping.
For all experiments except those described in FIG. 6, the male pronucleus was injected. Injections performed for the CPI portion of FIG. 6 were targeted to the cytoplasm. […]

[2] = system: maternal Chd2 locus; assay: Donor-free interchromosomal homologous recombination (ICHR) in IVF-derived Chd2^R1684H/+ embryos; assay type: cell-based, mouse
Method: as §1
For experiments using wildtype recombinant proteins, the following proteins were used: RAD51 (Creative Biomart RAD51-134H), USP1/WDR48 (Creative Biomart USP1&WDR48-1067H), BCCIP (Origene TP303061), XRCC1 (TP304952), XRCC4 (Origene TP312684), DMC1 (Origene TP318311). For experiments using mutant RAD51, custom RAD51 preparations were produced by Creative Biomart according to their standard protocol for producing the wildtype RAD51 used in all other experiments. Mutant DNA sequences used for cloning are described in TABLE 2. All RAD51 mutants were modeled in human RAD51 transcript variant 4 (NCBI accession NM_001164269), as this is the transcript variant of the wildtype RAD51-134H protein used in all other experiments.
In vitro fertilization was performed using FERTIUP® Mouse Preincubation Medium and CARD MEDIA (Kyudo Company) according to the manufacturer's protocol. Non-virgin Chd2^R1684H/R1684H males that were >8 weeks old were used as sperm donors. Following IVF, embryos were cultured for 8 hours and then injected using the PNI protocol described below.
For all experiments except those described in FIG. 6, the male pronucleus was injected. Injections performed for the CPI portion of FIG. 6 were targeted to the cytoplasm. All microinjections were performed using a Narishige Micromanipulator, Nikon Eclipse TE2000-S microscope, and Eppendorf 5242 microinjector. Individual zygotes were injected with 1-2 pL of injection mixture using an “automatic” injection mode set according to needle size and adjusted for clear increase in pronuclear volume. Following injections, cells were cultured in KSOM-AA until collection for genotyping. For experiments giving rise to F0 animals, embryos were surgically implanted into pseudopregnant CD-1 females (Charles River Laboratories, Strain Code 022) 24-hours post-injection and allowed to develop normally until natural birth.
Embryos were collected at morula-to-blastocyst stage in 4 μL nuclease-free water. After collection, 4 μL of 2× embryo digestion buffer was added to each sample (final concentrations: 125 μg/mL proteinase K, 100 mM Tris-HCl pH 8.0, 100 mM KCl, 0.02% gelatin, 0.45% Tween-20, 60 μg/mL yeast tRNA) and embryos were lysed for 1 hour at 56° C. Proteinase K was inactivated via incubation at 95° C. for 10 minutes and DNA was stored at −20° C. until use.
Chd2^R1684H genotyping was performed via a two-step, nested approach. Except for experiments described in FIGS. 3A-3G, all 8 μL of embryo DNA were used as input for the initial, long round of PCR. Genotyping of mouse pups and adult animals was performed using 2 μL of purified tail DNA. For all embryo genotyping, reactions mixtures were set up in a UV-sterilized laminar flow hood using sterile reagents and filter tips to avoid contamination. […]

B1: RAD51: recombinant human strand exchange protein RAD51 (Creative Biomart RAD51-134H), transcript variant 4 (protein, UniProt Q06609 2-339, looked up)
DNA repair protein RAD51 …: AMQMQLEANADTSVEEESFGPQPISRLEQCGINANDVKKLEEAGFHTVEAVAYAPKKELINIKGISEAKADKILAEAAKLVPMGFTTATEFHQRRSEIIQITTGSKELDKLLQGGIETGSITEMFGEFRTGKTQICHTLAVTCQLPIDRGGGEGKAMYIDTEGTFRPERLLAVAERYGLSGSDVLDNVAYARAFNTDHQTQLLYQASAMMVESRYALLIVDSATALYRTDYSGRGELSARQMHLARFLRMLLRLADEFGVAVVITNQVVAQVDGAAMFAADPKKPIGGNIIAHASTTRLYLRKGRGETRICKIYDSPCLPEAEAMFAINADGVGDAKD
For B1, the “pups with albino phenotype from homozygous KI of the Tyr^C89S allele” value ([1]; F0 pups with RAD51, 12% without) was 44.4%, the “homozygous KI rate relative to injection without RAD51” value ([1]; Tyr locus) was “more than doubled” and the “ICHR observed, share of injected embryos” value ([2]; PNI at ~8 hpf of Cas9/crRNA/tracrRNA, no donor, 26% in control injected embryos) was 74%. The indel-to-ICHR ratio ([2]; compared to control embryos) was “drastic decrease” and the overall indel rate ([2]; compared to control embryos) was “drastic decrease”.

— patent publication US11643670B2, “Methods of enhancing chromosomal homologous recombination” (Massachusetts Institute of Technology, priority 2018, dated 2023)
